# According to publication PMC11551748:
# Target: Exportin-1 (XPO1), endogenous (UniProt O14980)
# Assay: co-IP (GFP pulldown) and western blot, semi-quantification
# Settings: stable U2OS cell lines, parent: est. 0.60, read off a plot
# Chain of UniProt O14980 (O14980 whole entry): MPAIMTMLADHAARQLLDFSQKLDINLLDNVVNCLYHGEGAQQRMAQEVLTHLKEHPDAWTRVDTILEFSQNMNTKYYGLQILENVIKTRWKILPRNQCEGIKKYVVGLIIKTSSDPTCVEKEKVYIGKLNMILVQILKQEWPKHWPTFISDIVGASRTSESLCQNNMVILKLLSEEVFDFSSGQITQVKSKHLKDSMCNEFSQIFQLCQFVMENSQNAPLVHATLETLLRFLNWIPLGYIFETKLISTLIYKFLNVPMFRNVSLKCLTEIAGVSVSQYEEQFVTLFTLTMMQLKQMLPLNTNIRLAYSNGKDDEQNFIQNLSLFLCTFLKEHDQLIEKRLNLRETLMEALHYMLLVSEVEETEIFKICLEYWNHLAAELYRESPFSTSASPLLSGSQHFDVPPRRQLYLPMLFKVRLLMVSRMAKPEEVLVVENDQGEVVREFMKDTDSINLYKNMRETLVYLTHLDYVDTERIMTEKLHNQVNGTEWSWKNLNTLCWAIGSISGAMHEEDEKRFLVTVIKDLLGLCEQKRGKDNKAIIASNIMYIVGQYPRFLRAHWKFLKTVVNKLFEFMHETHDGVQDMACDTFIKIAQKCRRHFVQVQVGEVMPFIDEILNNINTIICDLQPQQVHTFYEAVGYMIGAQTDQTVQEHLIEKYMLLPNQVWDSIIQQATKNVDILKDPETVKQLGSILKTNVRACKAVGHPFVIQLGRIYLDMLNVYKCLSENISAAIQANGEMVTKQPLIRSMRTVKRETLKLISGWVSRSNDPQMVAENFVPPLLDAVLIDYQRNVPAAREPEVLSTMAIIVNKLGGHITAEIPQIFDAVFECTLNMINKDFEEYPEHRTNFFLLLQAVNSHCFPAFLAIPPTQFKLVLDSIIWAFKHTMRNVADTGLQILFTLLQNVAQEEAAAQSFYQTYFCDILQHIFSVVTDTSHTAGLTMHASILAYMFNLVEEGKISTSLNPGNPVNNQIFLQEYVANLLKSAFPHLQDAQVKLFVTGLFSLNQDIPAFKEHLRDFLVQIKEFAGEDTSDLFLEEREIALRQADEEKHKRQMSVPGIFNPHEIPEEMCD
substance,measurement,value
"TIRR-GFP WT (lentivirus-integrated, U2OS) (from UniProt Q9BRJ7) K10E",response (band intensity relative to WT -ETO),0.27
"TIRR-GFP WT (lentivirus-integrated, U2OS) (from UniProt Q9BRJ7) NES1",response (band intensity relative to WT -ETO),2.1
"TIRR-GFP WT (lentivirus-integrated, U2OS) (from UniProt Q9BRJ7) NES2",response (band intensity relative to WT -ETO),0.3
"TIRR-GFP WT (lentivirus-integrated, U2OS) (from UniProt Q9BRJ7) NES3",response (band intensity relative to WT -ETO),3.2
"TIRR-GFP WT (lentivirus-integrated, U2OS) (from UniProt Q9BRJ7) NES4",response (band intensity relative to WT -ETO),1.3
"TIRR-GFP WT (lentivirus-integrated, U2OS) (from UniProt Q9BRJ7) RBM",response (band intensity relative to WT -ETO),0.9
